Patent US20190315864A1

Biological target: Mouse CTLA4-Fc protein (mouse)
Assay: ELISA, control VHH coated 0.5 µg/well, mouse CTLA4-Fc (biotinylated), SA-HRP; blank 0.027

Mouse CTLA4-Fc protein (mouse), sequence (chain, as listed by the source limits assumed): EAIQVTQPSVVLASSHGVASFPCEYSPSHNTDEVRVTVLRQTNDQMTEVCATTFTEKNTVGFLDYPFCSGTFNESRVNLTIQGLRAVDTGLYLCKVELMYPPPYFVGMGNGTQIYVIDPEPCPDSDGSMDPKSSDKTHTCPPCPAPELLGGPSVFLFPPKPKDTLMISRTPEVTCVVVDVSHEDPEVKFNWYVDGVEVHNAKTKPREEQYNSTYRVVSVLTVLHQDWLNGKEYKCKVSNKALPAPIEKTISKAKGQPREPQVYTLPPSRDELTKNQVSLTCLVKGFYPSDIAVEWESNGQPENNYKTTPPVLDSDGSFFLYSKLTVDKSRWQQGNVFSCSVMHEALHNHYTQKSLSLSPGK

OD (against mouse CTLA4): 0.026 OD405
Substance: single domain antibody against other unrelated target (control) (VHH)
